Laboratory results reported in PMC2118495.
Read-outs that look alike come from different tables or passages of the source.

B1: mouse CD3γ (natural protein)
chain: QTNKAKNLVQVDGSRGDGSVLLTCGLTDKTIKWLKDGSIISPLNATKNTWNLGNNAKDPRGTYQCQGAKETSNPLQVYYRMCENCIELNIGTISGFIFAEVISIFFLALGVYLIAGQDGVRQSRASDKQTLLQNEQLYQPLKDREYDQYSHLQGNQLRKK

What was measured:
Assay in all cases: native gel or EMSA
[1] = target: mouse TCRγδ (transgenic TCRVγ1.1 and TCRVδ6 chains) (mouse)
[2] = target: human TCRγδ (clonotypic heterodimer of the γδ TCR) (human (endogenous in PBMCs and γδ T cell clones))
[3] = target: mouse TCRγδ (transgenic TCRVγ1.1 and TCRVδ6 chains) (mouse); remark: listed apart in the source

Row | stoichiometry N [2] | also measured | Molecule
1 | – | stoichiometry N [1]: 2 | mouse CD3ε (from UniProt P22646 22-189) (natural protein)
2 | 2 | – | human ζ chain of the TCR (ζζ dimer) (from UniProt P20963 22-164) (natural protein)
3 | 1 | – | human CD3δ (from UniProt P04234 22-171) (natural protein)
4 | 1 | – | human CD3γ (from UniProt P09693 23-182) (natural protein)
5 | 2 | – | human CD3ε (from UniProt P07766 23-207) (natural protein)
6 | – | stoichiometry N [3]: 2 | B1
